B1: 70-3F9-mHvKv-IgG2 (antibody, V domains shown)
VH: QVQLQQPGAELVRPGASVKLSCKASGYTFTSYWINWVKQRPGQGLEWIGNIFPSDSYTNYNQKFKDRAKLTVDKSSSTAYMQLSSPTSEDSAVYYCTRFGSSGYPDYYTMEYWGQGTSVTVSS
VL: DIQMTQSPASLSASVGETVTITCRASGNIDNYLAWYQQKQGKSPQLLVYNAKTLAEGVPSRFSGSGSGTEYSLKINSLQPEDFGSYHCQQYWTIPYTFGGGTKLEIK
B2: 45-2B3-mHvKv-IgG2 (antibody, V domains shown)
VH: QVQLQQSGPELVKPGASVKISCKTSGYAFSTSWMNWVKQRPGQGLEWIGRIYPGDGDTDYNGRFKGKATLTADKSSSTAYLQLSSLTSVDSAVYFCARLDGYYEVFYFDYWGQGTTLTVSS
VL: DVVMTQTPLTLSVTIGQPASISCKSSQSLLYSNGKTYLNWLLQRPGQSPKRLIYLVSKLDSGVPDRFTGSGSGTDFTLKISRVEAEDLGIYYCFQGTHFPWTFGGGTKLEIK
B3: 55-8F6-mHvKv-IgG2 (antibody, V domains shown)
VH: QVQLQQPGAELVRPGASVKLSCKASGYIFTSYWINWVKQRPGQGLEWIGNIYPSDSYTNYNQKFKDKATLTVDKSSSTAYMQLSSPTSEDSAVYYCTRFHYGSSPFDNWGQGTTLTVSS
VL: DIQMTQSTSSLSASLGDRVTISCRASQDISHYLNWYQQKPDGTVKLLIYYTSRLHSGVPSRFSGSGSGTDYSLTISNLEQEDFATYFCQQGHTLPRTFGGGTKLEIK
B4: 45-7E9-mHvKv-IgG2 (antibody, V domains shown)
VH: QVQLKQSGPGLVQPSQSLSITCTVSGFSLTTYGVHWVRQPPGKGLEWLGVIWSDGNTDYNDAFISRLSITKDNSTSQVFFKMNGLQADDTAIYYCARNSITSVSFDCWGQGTTLTVSS
VL: DIVMTQSQKFMSTSVGDRVSVTCKASQNVGTTVAWYQQRPGQSPKALICSASYRYSGVPDRFTGSGSGTDFTLTISNVQSEDLAEYFCQQYNSYPLTFGSGTKLEIK
B5: 45-8E11-mHvKv-IgG2 (antibody, V domains shown)
VH: EVQLQQSGTVLARPGASVKMSCKASGYSFTSNWMHWVKQRPGQGLEWIGVIYPGNSDTSYNQKFKGKAKLTAVTSASTAYMELSSLTNEDSAVYYCTRGITTAPEYWGQGTTLTVSS
VL: NIVMTQSPKSMSMSVGERVTLSCKASENVGIYVSWYQQKPEQSPKLLIYGASNRYTGVPDRFTGSGSATDFTLTISSVQPEDLADYHCGHTYNYPFTFGSGTKLEIK
B6: 45-8F1-mHvKv-IgG2 (antibody, V domains shown)
VH: B5 VH with N32Y, E82D, E105D
VL: B5 VL with Y32H, N53S, R54G, T56N, H90Q, N93S
B7: 45-4B9-mHvKv-IgG2 (antibody, V domains shown)
VH: EVQLQQSGPELVKPGASVKMSCKASGYTFTTYVMYWVKQRPGQGLEWIGYINPYNDDIRYNEKFKGKATLTSDRSSSTAYMELSSLTSEDSAVYLCARQGGDYWGQGTILTVSS
VL: DVQITQSPSYLAASPGETITVNCRASKNINKYLAWYQEKPGKTNKLLIYSGSTLQSGIPSRFSGSGSGTDFTLTISSLEPEDFAVYHCQQYNEYPLTFGAGTKLEMK
B8: 54-8B11-mHvKv-IgG2 (antibody, V domains shown)
VH: QIQLVQSGPELKKPGETVKISCKASKFTFTNYGMNWVKQAPGKALKWMGWINTYTGEPTYADDFKGRFDFSLETSATTAYLQINNLKNEDTATYFCARREYYPWVFVYWGQGTLVTVSA
VL: ENVLTQSPAIMSASPGEKVTMTCSASSSVSYMHWYQQKSSTSPKLWIYDTSKLASGVPGRFSGSGSGNSYSLTISSMEAEDVATYYCFQGSGYPLTFGGGTKLEIK
B9: 56-2A6-mHvKv-IgG2 (antibody, V domains shown)
VH: QIQLVQSGPELKKPGETVKISCKASGYTFTNYGMNWVKQAPGKGFKWMGWINTYTGEPTYADDFKGRFAFSLEISASTAYLQINNLKNEDTATYFCARRDYLGAMDYWGQGTSVTVSS
VL: ENVLTQSPAIMSASPGEKVTMTCRASSSVSSSYLHWYQQKSGASPKLWIYSTSNLASGVPARFSGSGSGTSYSLTISSVEAEDAATYYCQQYSAYLYTFGGGTKLEIK
B10: 29-6A5-mHvKv-IgG2 (antibody, V domains shown)
VH: QVQLQQPGAELVRPGASVKLSCKASGYTFSSYWINWVKQRPGQGLEWIGNIYPSDSYTNYNQKFKDKATLTVDKSSSTAYMQLSSPTSDDSAVYYCTRTWEFYYDSVFDYWGQGTTLTVSS
VL: DIKMTQSPSSMYASLGERVTITCKASQDINSYLSWFQQKPGKSPKTLIYRANRLVDGVPSRFSGSGSGQDYSLTISSLEYEDMGIYYCLQYDELPPTFGGGTKLEIK
B11: 1C4-H2K3-IgG4 (antibody, V domains shown)
VH: QVQMVQSGAEVKKPGASVKLSCKASGFTFSSSYINWLRQAPGQSLEWIGWIFAGTGGTYYNQKFTGRVQITRDTSASTAYMELSSLRSEDTAIYYCARHSPRATLFDFWGQGTTLTVSS
VL: EIVLTQSPATLSLSPGERATMSCRASSSVNHMHWYQQKPGFSPRAWIYATSNLASGIPARFSGSGSGTSFTLTISSLEPEDFATYYCQQWSSNPYTFGGGTKLEIK
notes: humanized
B12: 1C4-H1K1-IgG4 (antibody, V domains shown)
VH: B11 VH with S44R, I48M, Q69T
VL: B11 VL with M21L, F41Q, S42A, W46L, T84V
notes: humanized; also called 1C4-IgG4-H1K1
B13: 59-5E4-mHvKv-IgG2 (antibody, V domains shown)
VH: QVQLQQPGAELVRPGASVKLSCKASGYTFTTYWINWVRQRPGQGLEWIGNIYPSDSYTNYNQKFKDKASLTVDKSSNTAYMQLSSPTSEDSAVYYCAREAGDGTHYYAIDYWGQGTSVTVSS
VL: NIVMTQSPKSMSMSVGERVTLSCKASENVGTYVSWYQQKPEQSPKLLIYGASNRYPGVPDRFTGSGSATDFTLTISSLQAEDLADYHCGQGYSYLRTFGGGTNLEIK
B14: 16-1C4-mHvKv-IgG4 (antibody, V domains shown)
VH: QGQMQQSGAELVKPGASVKLSCKTSGFTFSSSYINWLKQKPGQSLEWIAWIFAGTGGTYYNQKFTGKAQLTVDTSSGTAYMQFSSLTTEDSAIYYCARHSPRATLFDFWGQGTTLTVSS
VL: QIVLSQSPAILSASPGEKVTMTCRASSSVNHMHWYQQRTGFSPKAWIYATSNLASGVPARFSGSGSGTSYSLTISRVEAEDAATYYCQQWSSNPYTFGGGTKLEIK
B15: 70-6F10-mHvKv-IgG2 (antibody, V domains shown)
VH: QVQLQQSGPELVKPGASVKISCKASGYAFNNSWMNWVKQRPGQGLEWIGRIYPGDGDTDYNGKFKGKATLTADKSSSTAYMQLSSLTSVDSAVYFCARLDGNYYYWYFDVWGAGTTVTVSS
VL: not shown
B16: 69-3C2-mHvKv-IgG2 (antibody, V domains shown)
VH: DVQLVESGGGLVQPGGSRKLSCAASGFSFSSFGMHWMRQAPEKGLEWVAYISSGSSAIYYADTVKGRFTISRDNPKNTLFLQMTSLRSEDTAMYYCARDWVDYWGQGTTLTVSS
VL: DIQMTQSPASLSVSVGETVTITCRASENIYSNLVWYQQKQGKSPQLLVYTATKLTNGVPSRFSGSGSGTQYSLKINSLQSEDFGTYYCQHFWDTPYTFGGGTKLEMK
B17: 45-8E2-mHvKv-IgG2 (antibody, V domains shown)
VH: EVKLLESGGGLVQPGGSLKLSCAASGFDFSRYWMSWVRQAPGKGLEWIGEIHPDSSAINYTPSLKDKFIISRDNAKNTLYLQMSKVRSEDTALYYCARSYYGRVFDYWGQGTTLTVSS
VL: DIVMTQSPATLSVTPGDRVSLSCRASQSISDYLHWYQQKSHESPRLLIKYASQSISGIPPRFSGSGSGSDFTLSINSVEPEDVGMYYCQDGHSFPPTFGAGTKLELK
B18: 61-6A7-mHvKv-IgG2 (antibody, V domains shown)
VH: EVQLQQSGAELVRPGALVKLSCKASGFNIKDYYMHWVKRRPEQGLEWIGWIDPENGNTIYDPKFQDKASITADTSSNTAYLQLSSLTSEDTAVYYCAEGLPWYFDYWGQGTTLTVSS
VL: QIILTQSPALMSASPGEKVTMTCSASSSVSDMNWYQQKPRSSPTPWIYLTSNLSSGVPDRFSGSGSGTSYSLTISSMEAEDAATYYCQQWSGNPLTFGAGTRLELK
B19: 30-5F9-mHvKv-IgG4 (antibody, V domains shown)
VH: QVQLKESGPGLVAPSQSLSITCTVSGFSLTTYDISWVRQPPGKGLEWLGVIWTGGGTNYNSSFMSRLSISKDNSKNQVFLKMNSLQVDDTAIYYCERVDYWGQGTTLTVSS
VL: DVVMTQTPLSLPVSLGDQASISCRSSQSLVHSNGNTYLHWYLQKPGQSPKLLIYKVSNRFSGVPDRFSGSGSGTAFTFKISRVEAEDLGVYFCSQNTHVPWTFGGGTKLEIK
B20: 45-7G9-mHvKv-IgG2 (antibody, V domains shown)
VH: QVQLQQPGSALVRPGASVKLSCKASGYTFSNYWIHWVKQRHGQGLEWIGNIYPASDYTNYDEKFKNKGTLTVDTSSSTAYMHLSSLTSEDSAVYYCSRGYFGSLDYWGQGTSVTVSA
VL: DILLTQSPAILSVNPGERVSFSCRASQPIGTGIHWYQQRTNGSPRLLIKSASESISGIPSRFSGSGSGTDFTLTINNVESDDVGDYYCQQSYSWPTTFGGGTKLKIN

Positions count from the first letter of the chain named.

A word on the Kd: it is a measure of binding affinity in units of concentration. Read a low Kd as higher affinity. One may read the koff as the rate constant with which the complex falls apart. Lower therefore signals slow dissociation. In general, kon refers to a measure of how fast the partners come together. The low end stands for slow association, the high end for fast association.

The assay concerns the target T1, Histidine-tagged human 4-1BB protein (h4-1BB-His) (human, UniProt Q07011 24-186).
T1 construct: not shown: histidine tag
Briefly: SPR (Biacore T200), antibody on Protein A chip, h4-1BB-His injected.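 Note: dissociation phase followed for 300 s, Kd derived as koff divided by kon from the kinetic fit.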
On to B1, for which the Kd came out at 0.16 nM, the off-rate constant (koff) amounted to 0.000159 s⁻¹ and the kon turned out to be 999000 M⁻¹ s⁻¹.
Taken in the same sequence, the figures for B2 were 4.96 nM, 0.000138 s⁻¹ and 27700 M⁻¹ s⁻¹.
Turning to B3, binding was characterised by a dissociation constant (Kd) of 2.18 nM, the koff was found to be 0.00341 s⁻¹ and the on-rate (kon) is 1.57e+06 M⁻¹ s⁻¹.
Taken in the same sequence, the figures for B4 were 15.3 nM, 0.00916 s⁻¹ and 600000 M⁻¹ s⁻¹.
In the same order, the values of B5 are 0.597 nM, 0.000127 s⁻¹ and 214000 M⁻¹ s⁻¹.
Taken in the same sequence, the figures for B6 were 62.3 nM, 0.00293 s⁻¹ and 47000 M⁻¹ s⁻¹.
B7 came in with a Kd of 110 nM, a koff of 0.00298 s⁻¹ and an on-rate constant (kon) of 27200 M⁻¹ s⁻¹.
In the same order, the values of B8 are 12 nM, 0.00502 s⁻¹ and 417000 M⁻¹ s⁻¹.
Taken in the same sequence, the figures for B9 were 14 nM, 0.00141 s⁻¹ and 101000 M⁻¹ s⁻¹.
Taken in the same sequence, the figures for B10 were 0.371 nM, 0.000715 s⁻¹ and 1.93e+06 M⁻¹ s⁻¹.
Regarding B11, the Kd turned out to be 17.6 nM, the koff was found to be 0.000502 s⁻¹ and the kon came to 28500 M⁻¹ s⁻¹.
In the same order, the values of B12 are 23.1 nM, 0.000616 s⁻¹ and 26700 M⁻¹ s⁻¹.
As for B13, binding was characterised by a dissociation constant (Kd) of 0.313 nM, the koff was 0.000331 s⁻¹ and the kon was 1.06e+06 M⁻¹ s⁻¹.
Taken in the same sequence, the figures for B14 were 20.5 nM, 0.000502 s⁻¹ and 24400 M⁻¹ s⁻¹.
Taken in the same sequence, the figures for B15 were 10.9 nM, 0.000263 s⁻¹ and 24100 M⁻¹ s⁻¹.
B16 came in with a Kd of 0.45 nM, a koff of 0.000521 s⁻¹ and a kon of 1.16e+06 M⁻¹ s⁻¹.
In the same order, the values of B17 are 1.28 nM, 0.000413 s⁻¹ and 323000 M⁻¹ s⁻¹.
In the same order, the values of B18 are 0.359 nM, 0.000513 s⁻¹ and 1.43e+06 M⁻¹ s⁻¹.
For the molecule B19, the Kd was 9.91 nM, the koff was determined as 0.00247 s⁻¹ and the kon was 249000 M⁻¹ s⁻¹.
As to B20, the dissociation constant (Kd) was 23.1 nM, the koff was determined as 0.0041 s⁻¹ and the kon turned out to be 177000 M⁻¹ s⁻¹.
